Article PMC13233820, “Recruitment of Mre11 to recombination sites during meiosis” (Nature Communications, 2026)

Experiments:
HisSUMO-Mer2 (wild type) = experiment: Co-expression pull-down assay (NiNTA, anti-MBP immunoblot); type: binding, Saccharomyces cerevisiae; conditions: co-expressed in E. coli
Protocol: Wild-type and mutant MBP-tagged Mre11-C49 and HisSUMO-tagged Mer2 were co-expressed in 50 mL of E. coli BL21 cultures and purified by affinity chromatography on Ni-NTA resin following a procedure similar to that described above. Briefly, cells were lysed by sonication and centrifuged at maximum speed for 30 mins at 4 °C on a table-top centrifuge. A small fraction of the supernatant was collected as ‘Input’ and the remainder was incubated with 120 µL Ni-NTA resin, pre-equilibrated with wash buffer (25 mM HEPES pH 7.5, 20 mM imidazole, 0.1 mM DTT, 0.1 mM PMSF, 10% glycerol), for 1 hour on a rotating wheel at 4 °C. The resin was washed twice with 2 ml in batch and five times with 2 ml on column before eluting with 250 µL of 500 mM imidazole in wash buffer. Input and elution fractions were separated by SDS-PAGE followed by immunoblotting with primary murine anti-MBP monoclonal antibody at 1:10,000 dilution (E8032S, NEB) and secondary goat anti-mouse IgG-HRP conjugated at 1:10,000 dilution (AP308P, Chemicon).

Mer2 = experiment: Yeast two-hybrid; type: binding, Saccharomyces cerevisiae; conditions: SC-Leu-Ura-His + 25 mM 3-AT
Protocol: Bait and prey plasmids were co-transformed into yWL365 using the standard ‘LiAc’-based transformation and plated on SC-Leu-Ura selective media. At least four independent transformants were tested for Mer2-Mre11 interaction by spotting a dilution series on SC-Leu- Ura-His + 25 mM 3-AT (3-amino-1,2,4-triazole) and growing for 4-5 days at 30 °C.

B1: Mre11-LLK: Mre11 (or its C49 fragment) with LLK residues mutated to alanine (protein, UniProt P32829 1-692, looked up, variant L683A L686A K690A)
Double-strand break repair …: MDYPDPDTIRILITTDNHVGYNENDPITGDDSWKTFHEVMMLAKNNNVDMVVQSGDLFHVNKPSKKSLYQVLKTLRLCCMGDKPCELELLSDPSQVFHYDEFTNVNYEDPNFNISIPVFGISGNHDDASGDSLLCPMDILHATGLINHFGKVIESDKIKVVPLLFQKGSTKLALYGLAAVRDERLFRTFKDGGVTFEVPTMREGEWFNLMCVHQNHTGHTNTAFLPEQFLPDFLDMVIWGHEHECIPNLVHNPIKNFDVLQPGSSVATSLCEAEAQPKYVFILDIKYGEAPKMTPIPLETIRTFKMKSISLQDVPHLRPHDKDATSKYLIEQVEEMIRDANEETKQKLADDGEGDMVAELPKPLIRLRVDYSAPSNTQSPIDYQVENPRRFSNRFVGRVANGNNVVQFYKKRSPVTRSKKSGINGTSISDRDVEKLFSESGGELEVQTLVNDLLNKMQLSLLPEVGLNEAVKKFVDKDEKTALKEFISHEISNEVGILSTNEEFLRTDDAEEMKALIKQVKRANSVRPTPPKENDETNFAFNGNGLDSFRSSNREVRTGSPDITQSHVDNESRITHISQAESSKPTSKPKRVRTATKKKIPAFSDSTVISDAENELGDNNDAQDDVDIDENDIIMVSTDEEDASYGLLNGRKTKTKTRPAASTKTASRRGKGRASRTPKTDIAGSALAKARK
With B1 the “Interaction with Mer2 in pulldown (in words)” value (HisSUMO-Mer2 (wild type)) was “strongly decreased the interaction” and the “Yeast two-hybrid interaction with Mer2 (in words)” value (Mer2) was “abolished the interaction”.
